{"source": "paper PMC7374565", "about": "(Nature Communications, 2020)", "binders": {"B1": {"name": "627 domain of PB2 (E627), amino acids 538-693 (domain or fragment)", "chain": "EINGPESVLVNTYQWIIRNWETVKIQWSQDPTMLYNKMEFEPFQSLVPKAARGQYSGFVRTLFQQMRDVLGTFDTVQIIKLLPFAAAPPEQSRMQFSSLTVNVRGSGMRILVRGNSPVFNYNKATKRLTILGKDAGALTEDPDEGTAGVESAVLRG"}}, "key": {"[1]": {"target": "intrinsically disordered domain of avian ANP32A (amino acids 149-281) (Gallus gallus)", "experiment": "NMR titration", "conditions": "both partners purified"}, "[2]": {"target": "intrinsically disordered domain of human ANP32A (amino acids 144-249) (human, UniProt P39687 144-249)", "sequence (P39687 144-249)": "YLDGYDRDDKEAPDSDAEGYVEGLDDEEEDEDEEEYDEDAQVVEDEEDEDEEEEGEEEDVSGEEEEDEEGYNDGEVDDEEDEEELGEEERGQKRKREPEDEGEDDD", "experiment": "NMR titration", "conditions": "both partners purified"}}, "data": [{"binder": "B1", "values": [{"measurement": "KD of the individual sites (tightest)", "setting": "[1]", "value": "≥ 1700", "unit": "µM"}, {"measurement": "Kd", "setting": "[1]", "value": "> 600", "unit": "µM"}, {"measurement": "KD of the individual sites", "setting": "[2]", "value": "> 1400", "unit": "µM"}]}]}
